# In paper PMC5951847, “Substrate sequence selectivity of APOBEC3A implicates intra-DNA interactions”:
# Columns and labels:
# A3A(E72A) [1] = target: T1, A3A(E72A) (Homo sapiens, UniProt P31941 1-199, E72A); experiment: fluorescence anisotropy; pH 6.0; 50 mM MES pH 6.0, 100 mM NaCl, 0.5 mM TCEP, room temperature overnight, 10 nM TAMRA-oligo; competition with 300 nM A3A(E72A); pH series: acetate 4.0-5.0, MES 5.5-6.5, HEPES 7.0-8.0, Tris 8.5-9.0; conditions: protein: recombinant, tags: His6-SUMO removed by Ulp1 (untagged)
# T1 sequence (P31941 whole entry E72A): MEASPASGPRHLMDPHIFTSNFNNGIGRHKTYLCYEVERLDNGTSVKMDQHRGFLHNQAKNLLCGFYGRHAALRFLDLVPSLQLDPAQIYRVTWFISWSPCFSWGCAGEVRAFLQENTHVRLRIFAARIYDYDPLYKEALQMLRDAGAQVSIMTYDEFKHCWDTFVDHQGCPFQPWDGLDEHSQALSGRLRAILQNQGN
# A3A(E72A) [2] = target: T1, A3A(E72A); experiment: competition; vs TAMRA-3A-TTCA-6A; 50 mM MES pH 6.0, 100 mM NaCl, 0.5 mM TCEP, room temperature overnight, 10 nM TAMRA-oligo; competition with 300 nM A3A(E72A); pH series: acetate 4.0-5.0, MES 5.5-6.5, HEPES 7.0-8.0, Tris 8.5-9.0; conditions: protein: recombinant; tags: His6-SUMO removed by Ulp1 (untagged); label: unlabeled
Binder,Kd (A3A(E72A) [1]; label: 5' TAMRA) [nM],other results
AAAATCCAAAAA (ssDNA) [Poly A-ATCC (3A-ATCC-5A)],163 ± 3,–
AAACTCCAAAAA (ssDNA) [Poly A-CTCC (3A-CTCC-5A)],101 ± 2,–
AAATTCTAAAAA (ssDNA) [Poly A-TTCT (3A-TTCT-5A)],127 ± 2,–
TTCAA (ssDNA) [TTCA-1A],–,binding result (A3A(E72A) [2]): no binding
CCCCCCCCCCCC (ssDNA) [Poly C (12 C)],1570 ± 117,–
GCCAUCUAUCGAUGGG (structured_RNA) [SDHB hairpin RNA (UC in loop)],–,"Kd (A3A(E72A) [1]; label: TAMRA (5'), hairpin): 37 nM"
AAAGTCCAAAAA (ssDNA) [Poly A-GTCC (3A-GTCC-5A)],152 ± 2,–
TTTTTTTTTTTT (ssDNA) [Poly T (12 T)],748 ± 44,–
AAAATCTAAAAA (ssDNA) [Poly A-ATCT (3A-ATCT-5A)],209 ± 5,–
AAAGTCAAAAAA (ssDNA) [Poly A-GTCA (3A-GTCA-5A)],150 ± 3,–
AAATTCAAAAAA (ssDNA) [Poly A-TTCA (3A-TTCA-5A)],90 ± 1,–
AAAACCAAAAAA (ssDNA) [Poly A-CC (4A-CC-6A)],250 ± 14,–
AAATTCCAAAAA (ssDNA) [Poly A-TTCC (3A-TTCC-5A)],114 ± 2,–
TTTTTCTTTTTT (ssDNA) [Poly T-C (5T-C-6T)],35 ± 2,–
ATTCA (ssDNA) [1A-TTCA],–,binding result (A3A(E72A) [2]): no binding
AAAATCGAAAAA (ssDNA) [Poly A-ATCG (3A-ATCG-5A)],154 ± 2,–
AAAGTCGAAAAA (ssDNA) [Poly A-GTCG (3A-GTCG-5A)],150 ± 3,–
AAACTCAAAAAA (ssDNA) [Poly A-CTCA (3A-CTCA-5A)],85 ± 1,–
AAACTCTAAAAA (ssDNA) [Poly A-CTCT (3A-CTCT-5A)],122 ± 2,–
AAAATCAAAAAA (ssDNA) [Poly A-TC (4A-TC-6A)],143 ± 4,–
"GCCAUCUAAAGAUGGG (structured_RNA) [SDHB hairpin RNA, loop UC to AA]",–,"Kd (A3A(E72A) [1]; label: TAMRA (5'), hairpin): 202 nM"
AAAGTCTAAAAA (ssDNA) [Poly A-GTCT (3A-GTCT-5A)],218 ± 7,–
AAAATCAAAAAA (ssDNA) [Poly A-ATCA (3A-ATCA-5A)],145 ± 2,–
